molecular target: FGFR3 (UniProt P22607); experiment: phosphorylation enrichment, bacterial display (enrichment ratio); higher = better substrate or ligand; peptides without Tyr show the background
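Also: 11-residue human phosphosite peptides and single-mutation variants displayed on the E. coli surface, counted by deep sequencing, each peptide's frequency after selection divided by its frequency in the unselected input library; frequency after pTyr selection over input frequency; kinase dosed for 20-30% of maximal phosphorylation in three min.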

FGFR3, sequence (P22607 whole entry, looked up): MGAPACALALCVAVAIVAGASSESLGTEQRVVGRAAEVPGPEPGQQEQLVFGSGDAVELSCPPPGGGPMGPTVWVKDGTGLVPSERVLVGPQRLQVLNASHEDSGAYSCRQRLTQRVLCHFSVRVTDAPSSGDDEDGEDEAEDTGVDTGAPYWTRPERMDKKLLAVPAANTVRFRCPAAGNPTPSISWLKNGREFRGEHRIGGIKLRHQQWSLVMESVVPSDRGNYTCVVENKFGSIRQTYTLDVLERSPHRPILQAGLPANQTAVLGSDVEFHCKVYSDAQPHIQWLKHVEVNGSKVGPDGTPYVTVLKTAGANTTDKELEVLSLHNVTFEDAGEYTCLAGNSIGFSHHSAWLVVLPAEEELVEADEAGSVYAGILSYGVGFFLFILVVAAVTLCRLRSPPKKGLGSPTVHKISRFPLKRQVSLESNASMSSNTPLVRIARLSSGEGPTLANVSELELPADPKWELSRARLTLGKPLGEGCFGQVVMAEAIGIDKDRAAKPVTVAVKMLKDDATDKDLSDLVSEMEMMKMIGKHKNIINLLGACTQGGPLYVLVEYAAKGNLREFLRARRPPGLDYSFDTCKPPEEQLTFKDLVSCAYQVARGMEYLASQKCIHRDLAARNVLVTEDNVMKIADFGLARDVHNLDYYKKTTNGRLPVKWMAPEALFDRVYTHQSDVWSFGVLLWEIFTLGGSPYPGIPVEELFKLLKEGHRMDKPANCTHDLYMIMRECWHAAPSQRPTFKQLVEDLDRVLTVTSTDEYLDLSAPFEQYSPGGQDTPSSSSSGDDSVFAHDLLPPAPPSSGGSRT

Going from DISEPYEVFRI [IRF8_Y107_K108E_YF] to VLALWYYYLTH [ZDHHC23_Y127], the phosphorylation enrichment rises from 0.725 to 5.65.

First: KPPPSYESEEE [BRD4_Y599_T598S]
Second: IVKAFYVRARA [AIPL1_Y268_YF]
The phosphorylation enrichment of the first is higher: 0.71 for the first, 0.688 for the second.

First: GYAGKYIAMVM [CYP19A1_Y441_C437Y]
Second: PLGVLYKVKVF [PTS_Y128_V124L_YF]
The phosphorylation enrichment of the first is lower: 0.584 for the first, 0.862 for the second.

First: QLDQHYLLVPE [DDX49_Y223_R222H]
Second: APSHAYHRGVL [ANO1_Y981_G983R]
The phosphorylation enrichment of the first is higher: 2.09 for the first, 0.472 for the second.

Compared with WRVIGYHVVVW [ATP13A2_Y50], FSIAQYCCRMG [LRRK2_Y2023_G2019S_YF] is lower in phosphorylation enrichment: 0.828 for the first, 0.57 for the second.

Going from SLNAVYPKAGS [OAS3_Y376_R378K] to FLAATYPTVGQ [NF1_Y2508_YF], the phosphorylation enrichment rises from 0.443 to 0.523.

Going from SGDDGYAKDAK [TENM4_Y1530] to TDIVAYSGWVQ [SPTBN2_Y477_R480W], the phosphorylation enrichment rises from 0.562 to 0.779.

Going from THPFPYLSLEI [MLH1_Y293_L292P] to METKGYQSLPE [NR3C2_Y6_H7Q], the phosphorylation enrichment falls from 0.677 to 0.568.

Compared with QDIMAYRSREV [BCL6_Y157_G159S], KPIETYFSKNF [PLP1_Y50_L46P_YF] is lower in phosphorylation enrichment: 0.664 for the first, 0.555 for the second.

First: HYECKYVINAI [MAOA_Y268]
Second: PLDGEYSTLQI [TP53_Y327_F328S]
The phosphorylation enrichment of the first is lower: 0.957 for the first, 1.18 for the second.

Compared with LSVMSYDLGMF [GBA3_Y174], ACEVLYNIAFM [NCF2_Y125] is higher in phosphorylation enrichment: 1.13 for the first, 1.49 for the second.

Compared with LWKWKYEELKE [CCDC102B_Y299], DLDATYRPMFS [JUP_Y701_M697L_YF] is lower in phosphorylation enrichment: 1.24 for the first, 0.557 for the second.

First: HDRNTYEKYLE [TF_Y666_G671E]
Second: NPQKSYFICLY [WAS_Y83_R86C]
The phosphorylation enrichment of the first is lower: 0.748 for the first, 0.975 for the second.

Compared with LLVVLCKYRCY [PSEN1_Y154_Y154C], DISEPYEVYRI [IRF8_Y107_K108E] is higher in phosphorylation enrichment: 0.536 for the first, 0.624 for the second.

For CTTIHYNYMHN [TP53_Y234_C238H], the phosphorylation enrichment was 0.521.

tested on: Fer (mouse); experiment: as above

Compared with DISEPYEVFRI [IRF8_Y107_K108E_YF], VLALWYYYLTH [ZDHHC23_Y127] is lower in phosphorylation enrichment: 12.3 for the first, 0.724 for the second.

Going from KPPPSYESEEE [BRD4_Y599_T598S] to IVKAFYVRARA [AIPL1_Y268_YF], the phosphorylation enrichment falls from 0.557 to 0.465.

First: GYAGKYIAMVM [CYP19A1_Y441_C437Y]
Second: PLGVLYKVKVF [PTS_Y128_V124L_YF]
The phosphorylation enrichment of the first is lower: 0.545 for the first, 0.692 for the second.

First: QLDQHYLLVPE [DDX49_Y223_R222H]
Second: APSHAYHRGVL [ANO1_Y981_G983R]
The phosphorylation enrichment of the first is higher: 0.643 for the first, 0.411 for the second.

Compared with WRVIGYHVVVW [ATP13A2_Y50], FSIAQYCCRMG [LRRK2_Y2023_G2019S_YF] is lower in phosphorylation enrichment: 0.587 for the first, 0.4 for the second.

Going from SLNAVYPKAGS [OAS3_Y376_R378K] to FLAATYPTVGQ [NF1_Y2508_YF], the phosphorylation enrichment rises from 0.412 to 0.593.

Going from SGDDGYAKDAK [TENM4_Y1530] to TDIVAYSGWVQ [SPTBN2_Y477_R480W], the phosphorylation enrichment rises from 0.494 to 1.38.

Going from THPFPYLSLEI [MLH1_Y293_L292P] to METKGYQSLPE [NR3C2_Y6_H7Q], the phosphorylation enrichment rises from 0.39 to 0.448.

Going from QDIMAYRSREV [BCL6_Y157_G159S] to KPIETYFSKNF [PLP1_Y50_L46P_YF], the phosphorylation enrichment rises from 0.196 to 0.379.

Compared with HYECKYVINAI [MAOA_Y268], PLDGEYSTLQI [TP53_Y327_F328S] is higher in phosphorylation enrichment: 0.506 for the first, 3.56 for the second.

First: LSVMSYDLGMF [GBA3_Y174]
Second: ACEVLYNIAFM [NCF2_Y125]
The phosphorylation enrichment of the first is lower: 0.602 for the first, 5.68 for the second.

Going from LWKWKYEELKE [CCDC102B_Y299] to DLDATYRPMFS [JUP_Y701_M697L_YF], the phosphorylation enrichment falls from 0.712 to 0.489.

First: HDRNTYEKYLE [TF_Y666_G671E]
Second: NPQKSYFICLY [WAS_Y83_R86C]
The phosphorylation enrichment of the first is higher: 0.715 for the first, 0.496 for the second.

Going from LLVVLCKYRCY [PSEN1_Y154_Y154C] to DISEPYEVYRI [IRF8_Y107_K108E], the phosphorylation enrichment rises from 0.353 to 9.63.

With CTTIHYNYMHN [TP53_Y234_C238H] the phosphorylation enrichment was 0.488.

molecular target: Fes (UniProt P07332); experiment: as above
Sequence (P07332 whole entry, looked up): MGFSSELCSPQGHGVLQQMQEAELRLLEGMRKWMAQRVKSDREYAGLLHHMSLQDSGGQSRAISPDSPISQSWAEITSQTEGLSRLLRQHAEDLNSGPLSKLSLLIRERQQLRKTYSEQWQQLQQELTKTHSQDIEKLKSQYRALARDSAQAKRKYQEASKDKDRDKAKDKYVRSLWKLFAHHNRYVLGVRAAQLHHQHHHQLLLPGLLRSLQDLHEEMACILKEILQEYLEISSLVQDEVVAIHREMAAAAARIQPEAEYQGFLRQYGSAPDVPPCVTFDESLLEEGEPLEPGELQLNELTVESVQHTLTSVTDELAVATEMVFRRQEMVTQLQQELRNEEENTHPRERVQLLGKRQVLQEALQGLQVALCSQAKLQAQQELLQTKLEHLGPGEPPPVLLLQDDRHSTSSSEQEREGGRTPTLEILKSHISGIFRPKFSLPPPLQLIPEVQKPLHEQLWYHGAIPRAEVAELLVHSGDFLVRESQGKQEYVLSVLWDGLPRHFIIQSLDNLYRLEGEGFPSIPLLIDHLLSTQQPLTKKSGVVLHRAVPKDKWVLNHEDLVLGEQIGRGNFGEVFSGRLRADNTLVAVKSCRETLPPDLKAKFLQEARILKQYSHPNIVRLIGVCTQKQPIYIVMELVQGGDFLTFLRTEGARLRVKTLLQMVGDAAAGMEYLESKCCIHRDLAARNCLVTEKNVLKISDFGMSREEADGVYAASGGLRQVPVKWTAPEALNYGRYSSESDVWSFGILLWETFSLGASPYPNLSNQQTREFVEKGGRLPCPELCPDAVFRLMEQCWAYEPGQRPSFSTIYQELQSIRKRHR

Going from DISEPYEVFRI [IRF8_Y107_K108E_YF] to VLALWYYYLTH [ZDHHC23_Y127], the phosphorylation enrichment rises from 1.15 to 1.64.

Going from KPPPSYESEEE [BRD4_Y599_T598S] to IVKAFYVRARA [AIPL1_Y268_YF], the phosphorylation enrichment falls from 1.29 to 1.07.

Going from GYAGKYIAMVM [CYP19A1_Y441_C437Y] to PLGVLYKVKVF [PTS_Y128_V124L_YF], the phosphorylation enrichment rises from 0.904 to 1.64.

Going from QLDQHYLLVPE [DDX49_Y223_R222H] to APSHAYHRGVL [ANO1_Y981_G983R], the phosphorylation enrichment falls from 1.1 to 0.583.

Compared with WRVIGYHVVVW [ATP13A2_Y50], FSIAQYCCRMG [LRRK2_Y2023_G2019S_YF] is lower in phosphorylation enrichment: 1.25 for the first, 0.868 for the second.

Going from SLNAVYPKAGS [OAS3_Y376_R378K] to FLAATYPTVGQ [NF1_Y2508_YF], the phosphorylation enrichment rises from 0.515 to 0.634.

Compared with SGDDGYAKDAK [TENM4_Y1530], TDIVAYSGWVQ [SPTBN2_Y477_R480W] is higher in phosphorylation enrichment: 0.741 for the first, 1.02 for the second.

Going from THPFPYLSLEI [MLH1_Y293_L292P] to METKGYQSLPE [NR3C2_Y6_H7Q], the phosphorylation enrichment falls from 0.978 to 0.825.

First: QDIMAYRSREV [BCL6_Y157_G159S]
Second: KPIETYFSKNF [PLP1_Y50_L46P_YF]
The phosphorylation enrichment of the first is lower: 0.746 for the first, 0.775 for the second.

Compared with HYECKYVINAI [MAOA_Y268], PLDGEYSTLQI [TP53_Y327_F328S] is lower in phosphorylation enrichment: 1.61 for the first, 1.53 for the second.

First: LSVMSYDLGMF [GBA3_Y174]
Second: ACEVLYNIAFM [NCF2_Y125]
The phosphorylation enrichment of the first is higher: 1.59 for the first, 1.53 for the second.

Going from LWKWKYEELKE [CCDC102B_Y299] to DLDATYRPMFS [JUP_Y701_M697L_YF], the phosphorylation enrichment falls from 1.73 to 0.85.

Compared with HDRNTYEKYLE [TF_Y666_G671E], NPQKSYFICLY [WAS_Y83_R86C] is lower in phosphorylation enrichment: 1.21 for the first, 1.2 for the second.

Going from LLVVLCKYRCY [PSEN1_Y154_Y154C] to DISEPYEVYRI [IRF8_Y107_K108E], the phosphorylation enrichment rises from 1.01 to 1.05.

CTTIHYNYMHN [TP53_Y234_C238H] gave a phosphorylation enrichment of 0.767.

molecular target: Fyn (UniProt P06241); experiment: as above
Sequence (P06241 whole entry, looked up): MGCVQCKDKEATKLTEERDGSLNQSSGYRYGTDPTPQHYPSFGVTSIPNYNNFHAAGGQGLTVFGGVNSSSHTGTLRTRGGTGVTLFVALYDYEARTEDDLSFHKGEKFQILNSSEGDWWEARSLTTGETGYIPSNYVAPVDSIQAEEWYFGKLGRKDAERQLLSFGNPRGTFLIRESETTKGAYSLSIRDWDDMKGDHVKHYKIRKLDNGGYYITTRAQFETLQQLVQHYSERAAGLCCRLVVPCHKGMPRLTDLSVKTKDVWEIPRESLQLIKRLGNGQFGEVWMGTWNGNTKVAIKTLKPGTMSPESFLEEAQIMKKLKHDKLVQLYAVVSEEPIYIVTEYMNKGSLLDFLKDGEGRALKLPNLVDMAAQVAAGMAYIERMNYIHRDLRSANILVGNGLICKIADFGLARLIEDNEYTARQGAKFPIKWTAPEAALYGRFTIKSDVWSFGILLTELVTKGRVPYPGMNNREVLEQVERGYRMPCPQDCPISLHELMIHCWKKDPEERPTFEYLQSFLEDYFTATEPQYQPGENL

Going from DISEPYEVFRI [IRF8_Y107_K108E_YF] to VLALWYYYLTH [ZDHHC23_Y127], the phosphorylation enrichment falls from 1.91 to 0.646.

Going from KPPPSYESEEE [BRD4_Y599_T598S] to IVKAFYVRARA [AIPL1_Y268_YF], the phosphorylation enrichment falls from 0.639 to 0.433.

Compared with GYAGKYIAMVM [CYP19A1_Y441_C437Y], PLGVLYKVKVF [PTS_Y128_V124L_YF] is higher in phosphorylation enrichment: 0.489 for the first, 0.801 for the second.

First: QLDQHYLLVPE [DDX49_Y223_R222H]
Second: APSHAYHRGVL [ANO1_Y981_G983R]
The phosphorylation enrichment of the first is higher: 0.955 for the first, 0.424 for the second.

First: WRVIGYHVVVW [ATP13A2_Y50]
Second: FSIAQYCCRMG [LRRK2_Y2023_G2019S_YF]
The phosphorylation enrichment of the first is higher: 0.444 for the first, 0.401 for the second.

Compared with SLNAVYPKAGS [OAS3_Y376_R378K], FLAATYPTVGQ [NF1_Y2508_YF] is higher in phosphorylation enrichment: 0.395 for the first, 0.435 for the second.

Compared with SGDDGYAKDAK [TENM4_Y1530], TDIVAYSGWVQ [SPTBN2_Y477_R480W] is higher in phosphorylation enrichment: 0.564 for the first, 0.824 for the second.

First: THPFPYLSLEI [MLH1_Y293_L292P]
Second: METKGYQSLPE [NR3C2_Y6_H7Q]
The phosphorylation enrichment of the first is lower: 0.295 for the first, 0.421 for the second.

Going from QDIMAYRSREV [BCL6_Y157_G159S] to KPIETYFSKNF [PLP1_Y50_L46P_YF], the phosphorylation enrichment rises from 0.323 to 0.544.

First: HYECKYVINAI [MAOA_Y268]
Second: PLDGEYSTLQI [TP53_Y327_F328S]
The phosphorylation enrichment of the first is lower: 0.507 for the first, 2.2 for the second.

Going from LSVMSYDLGMF [GBA3_Y174] to ACEVLYNIAFM [NCF2_Y125], the phosphorylation enrichment rises from 0.759 to 1.97.

First: LWKWKYEELKE [CCDC102B_Y299]
Second: DLDATYRPMFS [JUP_Y701_M697L_YF]
The phosphorylation enrichment of the first is higher: 0.631 for the first, 0.522 for the second.

Going from HDRNTYEKYLE [TF_Y666_G671E] to NPQKSYFICLY [WAS_Y83_R86C], the phosphorylation enrichment falls from 0.856 to 0.443.

First: LLVVLCKYRCY [PSEN1_Y154_Y154C]
Second: DISEPYEVYRI [IRF8_Y107_K108E]
The phosphorylation enrichment of the first is lower: 0.377 for the first, 1.55 for the second.

Work on CTTIHYNYMHN [TP53_Y234_C238H] yielded a phosphorylation enrichment of 0.447.

— the supplement of paper PMC10065799, “High-throughput profiling of sequence recognition by tyrosine kinases and SH2 domains using bacterial peptide display” (eLife, 2023)
